Test results reported in patent publication US20020086018A1.

Columns and labels:
[1] = molecular target: huBCMA-Fc (soluble human BCMA-Fc receptor fusion protein) (human); test: BIAcore 2000; BCMA-Fc immobilised on CM5, Flag-APRIL as analyte, 1:1 Langmuir model
[2] = molecular target: mBCMA-Fc (soluble murine BCMA-Fc) (mouse); test: as above

Kd [1]: 0.29 nM
Kd [2]: 0.25 nM
Substance: Soluble murine APRIL-Flag protein (FLAG-tagged soluble mouse G70) (ligand)
